The values below are quoted from earlier work in paper PMC4540119.

Broadly, the Kd is a measure of binding affinity in units of concentration.

Read-outs that look alike come from different tables or passages of the source.

Data set [1] has as its target integrin α6β1 (Homo sapiens) (UniProt P23229).
Data set [2] shares this target. This is another data set of the same source.

UniProt P23229, sequence (P23229 24-1050, chain 1 of 2): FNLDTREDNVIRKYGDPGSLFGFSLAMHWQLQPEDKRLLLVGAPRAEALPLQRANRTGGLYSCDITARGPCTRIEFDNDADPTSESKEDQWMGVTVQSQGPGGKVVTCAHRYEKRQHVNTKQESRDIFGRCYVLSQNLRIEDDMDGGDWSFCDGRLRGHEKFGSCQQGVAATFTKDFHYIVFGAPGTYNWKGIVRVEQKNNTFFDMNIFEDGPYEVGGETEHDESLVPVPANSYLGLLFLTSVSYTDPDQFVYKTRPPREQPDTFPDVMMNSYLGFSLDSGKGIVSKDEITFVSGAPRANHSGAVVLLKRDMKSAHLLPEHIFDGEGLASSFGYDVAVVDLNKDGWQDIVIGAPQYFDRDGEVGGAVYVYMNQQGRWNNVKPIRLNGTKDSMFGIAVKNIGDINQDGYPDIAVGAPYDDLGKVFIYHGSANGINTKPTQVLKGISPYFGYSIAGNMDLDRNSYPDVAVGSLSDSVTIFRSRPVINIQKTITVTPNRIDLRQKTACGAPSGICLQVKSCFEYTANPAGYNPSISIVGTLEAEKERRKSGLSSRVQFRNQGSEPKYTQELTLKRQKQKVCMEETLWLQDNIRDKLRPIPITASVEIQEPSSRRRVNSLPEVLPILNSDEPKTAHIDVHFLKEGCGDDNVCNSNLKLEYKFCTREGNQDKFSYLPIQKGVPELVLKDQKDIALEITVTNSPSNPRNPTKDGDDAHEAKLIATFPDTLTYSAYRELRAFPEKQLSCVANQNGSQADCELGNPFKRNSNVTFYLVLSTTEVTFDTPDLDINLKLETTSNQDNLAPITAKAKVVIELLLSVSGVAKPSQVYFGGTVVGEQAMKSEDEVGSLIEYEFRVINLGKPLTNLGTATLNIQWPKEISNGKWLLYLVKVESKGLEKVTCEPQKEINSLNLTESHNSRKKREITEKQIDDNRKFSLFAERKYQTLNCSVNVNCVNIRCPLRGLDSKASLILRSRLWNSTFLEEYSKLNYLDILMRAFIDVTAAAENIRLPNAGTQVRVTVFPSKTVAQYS
UniProt P23229, sequence (P05556 21-728, chain 2 of 2, further chain): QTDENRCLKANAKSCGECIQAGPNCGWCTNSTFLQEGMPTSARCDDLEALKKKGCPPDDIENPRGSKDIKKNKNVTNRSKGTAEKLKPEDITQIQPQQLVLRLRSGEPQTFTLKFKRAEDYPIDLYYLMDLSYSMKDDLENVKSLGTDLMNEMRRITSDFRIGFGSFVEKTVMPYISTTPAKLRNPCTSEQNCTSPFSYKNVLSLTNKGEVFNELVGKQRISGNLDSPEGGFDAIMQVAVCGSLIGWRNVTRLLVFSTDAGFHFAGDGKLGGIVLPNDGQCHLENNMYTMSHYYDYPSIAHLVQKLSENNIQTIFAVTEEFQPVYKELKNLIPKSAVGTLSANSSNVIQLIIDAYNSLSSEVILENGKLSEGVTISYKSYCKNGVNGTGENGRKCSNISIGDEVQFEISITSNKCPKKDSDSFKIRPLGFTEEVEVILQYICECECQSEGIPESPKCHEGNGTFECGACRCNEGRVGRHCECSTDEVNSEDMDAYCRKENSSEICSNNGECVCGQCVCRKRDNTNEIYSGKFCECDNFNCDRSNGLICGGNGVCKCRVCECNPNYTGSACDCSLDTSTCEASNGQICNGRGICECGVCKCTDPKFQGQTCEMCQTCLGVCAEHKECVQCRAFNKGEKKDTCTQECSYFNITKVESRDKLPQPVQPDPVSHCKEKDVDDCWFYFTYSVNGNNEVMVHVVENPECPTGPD

On to laminin-111 (from UniProt P25391), for which the equilibrium dissociation constant (Kd) in data set [1] was 9.5 nM.
Take laminin-521 (from UniProt O15230): the dissociation constant Kd in data set [2] is 0.72 nM.
